# Source: patent publication US9339535
# Target: PapMV coat protein CPΔN5 (disks) (Papaya mosaic virus) (UniProt P16596)
# Test: EMSA
# Conditions: shift with 500 ng (22 pmol as printed) protein in 10 µl, 165 fmol RNA; cooperative; weak affinity; room temperature 60 min
substance,measurement,value
PapMV 5' non-coding 80 nt RNA probe,binding,500 ng
